Measurements published in article PMC5496246, “Site-specific chemical conjugation of human Fas ligand extracellular domain using trans-cyclooctene – methyltetrazine reactions” (BMC Biotechnology, 2017).

Legend:
Assay in all cases: co-IP; receptor-mediated co-immunoprecipitation: sample (5.5 ug) with hFasRECD-Fc (8.8 ug) and Protein G conjugated magnetic beads (1.0 mg) in 1.0 ml 50 mM Tris-HCl, 150 mM NaCl (pH 7.5), 1% Nonidet P40, 0.5% sodium deoxycholate; precipitate read by SDS-PAGE with silver stain
Details in all cases: both partners purified
[1] = biological target: T1, Avidin-hFasLECD conjugate (human | chicken, UniProt P48023 139-281; P02701 25-152, N184Q | N250Q, cysteine in the N-terminal tag sequence modified with trans-cyclooctene-PEG3-maleimide, joined through the TCO-MTZ reaction to an MTZ-PEG4 group on avidin | lysine residues modified with …)
T1 construct: holds the reactive cysteine; human Fas ligand extracellular domain, residues 139-281, with N184Q and N250Q; avidin from chicken egg white, native homotetramer; Covalent chemical conjugate, thought to be one avidin tetramer to one hFasLECD trimer; on SDS-PAGE mainly one avidin subunit joined to one hFasLECD subunit, less of one avidin subunit with two hFasLECD subunits; not shown: FLAG, …

[2] = biological target: T2, TCO-derivative of NFK3G1CG4-hFasLECD (human, UniProt P48023 139-281, N184Q | N250Q, cysteine in the N-terminal tag sequence modified with trans-cyclooctene-PEG3-maleimide)
T2 construct: holds the reactive cysteine; human Fas ligand extracellular domain, residues 139-281, with N184Q and N250Q; also called hFasLECD-TCO; source: P. pastoris secretory expression, purified (cation exchange); modified with TCO-PEG3-MAL, size-exclusion chromatography; not shown: FLAG, N-terminal, kept
T2 sequence: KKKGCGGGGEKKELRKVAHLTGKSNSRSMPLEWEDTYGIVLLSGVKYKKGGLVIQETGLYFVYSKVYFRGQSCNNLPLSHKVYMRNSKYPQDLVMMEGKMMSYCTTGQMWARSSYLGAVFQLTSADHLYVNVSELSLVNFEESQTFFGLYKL

[3] = biological target: T3, sulfo-Cy3-MTZ conjugated hFasLECD-TCO (human, UniProt P48023 139-281, N184Q | N250Q, cysteine in the N-terminal tag sequence modified with trans-cyclooctene-PEG3-maleimide and conjugated with sulfo-Cy3-methyltetrazine; estimated 1.5 fluorochromes per hFasLECD trimer)
T3 construct: holds the reactive cysteine; human Fas ligand extracellular domain, residues 139-281, with N184Q and N250Q; Derived from NFK3G1CG4-hFasLECD; Not every subunit of the trimer carries the fluorochrome; also called Sulfo-Cy3-MT-hFasLECD; sulfo-Cy3 conjugated hFasLECD; source: P. pastoris secretory expression, purified (cation exchange); modified with TCO-PEG3-MAL, reacted with sulfo-Cy3-MTZ, purified …
T3 sequence: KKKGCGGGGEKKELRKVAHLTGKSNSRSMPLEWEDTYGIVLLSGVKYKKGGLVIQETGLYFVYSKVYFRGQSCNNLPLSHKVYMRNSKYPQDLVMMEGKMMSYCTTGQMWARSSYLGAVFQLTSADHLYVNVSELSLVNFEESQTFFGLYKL

[4] = biological target: T4, sulfo-Cy3-TCO conjugated hFasLECD-MTZ (human, UniProt P48023 139-281, N184Q | N250Q, cysteine in the N-terminal tag sequence modified with methyltetrazine-PEG4-maleimide and conjugated with sulfo-Cy3-trans-cyclooctene; estimated 1.6 fluorochromes per hFasLECD trimer)
T4 construct: holds the reactive cysteine; human Fas ligand extracellular domain, residues 139-281, with N184Q and N250Q; Derived from NFK3G1CG4-hFasLECD; Not every subunit of the trimer carries the fluorochrome; also called Sulfo-Cy3-TM-hFasLECD; sulfo-Cy3 conjugated hFasLECD; source: P. pastoris secretory expression, purified (cation exchange); modified with MTZ-PEG4-MAL, reacted with sulfo-Cy3-TCO, purified …
T4 sequence: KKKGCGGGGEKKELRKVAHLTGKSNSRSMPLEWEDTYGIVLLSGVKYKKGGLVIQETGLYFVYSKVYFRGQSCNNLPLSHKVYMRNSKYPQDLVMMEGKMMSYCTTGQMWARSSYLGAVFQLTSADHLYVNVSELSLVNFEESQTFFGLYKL

Measured: binding result

T1 sequence (P02701 25-152, stated change not applied, one chain of several): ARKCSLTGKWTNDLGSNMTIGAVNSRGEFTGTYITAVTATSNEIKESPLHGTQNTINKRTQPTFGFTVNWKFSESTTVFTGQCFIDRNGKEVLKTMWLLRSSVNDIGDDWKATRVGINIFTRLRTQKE

B1: human Fas receptor extracellular domain-human IgG1 Fc domain fusion protein (Fc fusion, UniProt P25445 26-173, looked up)
chain: QVTDINSKGLELRKTVTTVETQNLEGLHHDGQFCHKPCPPGERKARDCTVNGDEPDCVPCQEGKEYTDKAHFSSKCRRCRLCDEGHGLEVEINCTRTQNTKCRCKPNFFCNSTVCEHCDPCTKCEHGIIKECTLTSNTKCKEEGSRSN
notes: human Fas receptor (hFasR) extracellular domain; also called hFasRECD-Fc; source: baculovirus - Bombyx mori expression system, purified
binds: all assays above
